Test results published in the supplement of paper PMC7125110.
± gives the standard error. For part of these data: This sample holds only a part of the variants without activity.

B1: glmS ribozyme (parent)
chain: AUAAAAGCGCCAGAACUACAGAAAUGUAGUUGACGAGGAGGAGGUUUAUCGAAUUUUCGGCGGAUGCCUCCAAA

Key:
Conditions in all cases: with glucosamine-6-phosphate
glucosamine-6-phosphate [1] = variants of: B1; assay: kcat; higher = faster cleavage; RNA array
In short: (§1)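 The measurements used barcoded ribozyme variants on sequenced MiSeq chips, transcribed in situ by E. coli RNA polymerase and tracked at 37 °C with a hybridised Cy3 probe. Glucosamine-6-phosphate, 40 μM to 10 mM in HEPES/KCl/Mg(OAc)2 buffer, was flowed in while tiles were imaged over ~14 h. Baseline-normalised signals, also normalised to non-cleaving reference variants, gave per-tile medians that were fit to one- or two-exponential decays for kobs. kcat and KM resulted from weighted Michaelis–Menten fits across concentrations.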

glucosamine-6-phosphate [2] = variants of: B1; assay: KM; higher = weaker cofactor use; RNA array
In short: as §1

glucosamine-6-phosphate [3] = variants of: B1; assay: self-cleavage kobs at 40 uM GlcN6P; higher = faster cleavage; RNA array
In short: as §1

glucosamine-6-phosphate [4] = variants of: B1; assay: self-cleavage kobs at 160 uM GlcN6P; higher = faster cleavage; RNA array
In short: as §1

glucosamine-6-phosphate [5] = variants of: B1; assay: self-cleavage kobs at 640 uM GlcN6P; higher = faster cleavage; RNA array
In short: as §1

glucosamine-6-phosphate [6] = variants of: B1; assay: self-cleavage kobs at 2500 uM GlcN6P; higher = faster cleavage; RNA array
In short: as §1

glucosamine-6-phosphate [7] = variants of: B1; assay: self-cleavage kobs at 10000 uM GlcN6P; higher = faster cleavage; RNA array
In short: as §1

Row | Variant | kcat (glucosamine-6-phosphate [1]) | KM (glucosamine-6-phosphate [2]) | self-cleavage kobs at 40 uM GlcN6P (glucosamine-6-phosphate [3]) | self-cleavage kobs at 160 uM GlcN6P (glucosamine-6-phosphate [4]) | self-cleavage kobs at 640 uM GlcN6P (glucosamine-6-phosphate [5]) | self-cleavage kobs at 2500 uM GlcN6P (glucosamine-6-phosphate [6]) | self-cleavage kobs at 10000 uM GlcN6P (glucosamine-6-phosphate [7])
1 | AUAAAAGCGCUAGAACUACAGAAAUGUAGUUGACGAGGAGGAGGUUUAUCGAAAUUUCGGCGGAUGCCUCCAAA [C11U U54A] | 0.00189 ± 0.00049 s⁻¹ | 1150 ± 470 µM | 8.46e-05 ± 1.3e-05 s⁻¹ | 0.000164 ± 3.1e-05 s⁻¹ | 0.000876 ± 0.00016 s⁻¹ | 0.00164 ± 0.00021 s⁻¹ | 0.00149 ± 0.00021 s⁻¹
2 | AUAAAAGCGCUAGAACUACAGAAAUGUAGUUGACGAGGAGGAGGGUUAUCGAAAUUUCGGCGGAUGCCUCCAAA [C11U U45G U54A] | 0.000206 ± 5.6e-05 s⁻¹ |  |  |  |  | 0.000119 ± 2.7e-05 s⁻¹ | 0.000152 ± 3.4e-05 s⁻¹
3 | AUAAAAGCGCUAGAACUACAGAAAUGUAGAUGACGAGGAGGAGGUUUAUCGAAUUUUCGGCGGAUGCCUCCAAA [C11U U30A] | 0.00152 ± 0.00047 s⁻¹ | 931 ± 450 µM | 8.01e-05 ± 1.1e-05 s⁻¹ | 0.000252 ± 4.8e-05 s⁻¹ | 0.000433 ± 7.8e-05 s⁻¹ | 0.0011 ± 0.00021 s⁻¹ | 0.0018 ± 0.00027 s⁻¹
4 | AUAAAAGCGCUAGAACUACAGAAAUGUAGUUGACGAGGAGGAGGUUUAUCGAAUUUUCUGCGGAUGCCUCCAAA [C11U G59U] | 0.000274 ± 3.6e-06 s⁻¹ | 1920 ± 51 µM |  |  | 6.88e-05 ± 6.5e-06 s⁻¹ | 0.000155 ± 1.6e-05 s⁻¹ | 0.00023 ± 1.9e-05 s⁻¹
5 | AUAAAAGCGCUAGAACUACAGAAAUGUAGUUGACGAGGAGGAGGUUUAGCGAAUUUUCGGCGGAUGCCUCCAAA [C11U U49G] | 1.33e-05 ± 1.3e-06 s⁻¹ |  | < 1e-05 s⁻¹ |  |  |  | 
6 | AUAAAAGCGCUAGAACUACAGAAAUGUAAUUGACGAGGAGGAGGUUUAUCGAAUUUUCGGCGGAUGCCUCCAAA [C11U G29A] | 0.000628 ± 0.00013 s⁻¹ | 4190 ± 1400 µM |  |  | 9.17e-05 ± 1.1e-05 s⁻¹ | 0.000194 ± 3e-05 s⁻¹ | 0.000474 ± 5.6e-05 s⁻¹
7 | AUAAAAGCGCUAGAACUACAGAAAUGUAGUUGACGAGGAGGAGGUCUAUCGAAUUUUCGGCGGAUGCCUCCAAA [C11U U46C] | 7.67e-05 ± 2e-05 s⁻¹ |  | < 1e-05 s⁻¹ |  | 3.45e-05 ± 1.3e-05 s⁻¹ | 3.71e-05 ± 9.8e-06 s⁻¹ | 6.92e-05 ± 1.1e-05 s⁻¹
8 | AUAAAAGCGCUAGAACUACAGAAAUGUAGUUGACGAGGAGGAGGUUUAUCGAAUUUUCGGCGGAUUCCUCCAAA [C11U G66U] | 4.89e-05 ± 2.1e-05 s⁻¹ |  | < 1e-05 s⁻¹ |  |  | 6.45e-05 ± 1e-05 s⁻¹ | 2.69e-05 ± 1.2e-05 s⁻¹
9 | AUAAAAGCGCUAGAACUACAGAAAUGUAGUUGACGAGGAGGAGGUUUAUCGAAUUUUAGGCGGAUGCCUCCAAA [C11U C58A] | 5.6e-05 ± 2e-06 s⁻¹ | 753 ± 170 µM |  |  |  | 4.48e-05 ± 1.1e-05 s⁻¹ | 5.15e-05 ± 8.2e-06 s⁻¹
10 | AUAAAAGCGCUAGAACUACAGAAAUGUAGUUGACGAGGAGGAGGUUUAUCGAAUUUUCGGCGGAUGCCUCGAAA [C11U C71G] | 0.000109 ± 9.1e-06 s⁻¹ | 408 ± 150 µM |  |  | 7.07e-05 ± 1.2e-05 s⁻¹ | 8.38e-05 ± 1.2e-05 s⁻¹ | 0.000111 ± 1.2e-05 s⁻¹
11 | AUAAAAGCGCUAGAACUACAGAAAUGUAGUUGACGAAGAGGAGGUUUAUCGAAUUUUCGGCGGAUGCCUCCAAA [C11U G37A] | 7.88e-05 ± 6.9e-07 s⁻¹ | 1070 ± 36 µM |  |  | 2.98e-05 ± 9.1e-06 s⁻¹ | 5.51e-05 ± 9.5e-06 s⁻¹ | 7.12e-05 ± 8.2e-06 s⁻¹
12 | AUAAAAGCGCUAGAACUACAGAAAUGUAGUUGACGAGGAGGAGGUUUAUCGAAUAGUCGGCGGAUGCCUCCAAA [C11U U55A U56G] | 0.000956 ± 0.00038 s⁻¹ |  | 4.23e-05 ± 1.9e-05 s⁻¹ |  | 0.000289 ± 4.5e-05 s⁻¹ | 0.000451 ± 0.00012 s⁻¹ | 0.00113 ± 0.00024 s⁻¹
13 | AUAAAAGCGCUAGAAUUACAGAAAUGUAGUUGACGAGGAGGAGGUUUAUCGAAUUUUCGGCGGAUGCCUCUAAA [C11U C16U C71U] | 0.000649 ± 0.00014 s⁻¹ | 1100 ± 540 µM | 4.58e-05 ± 1.8e-05 s⁻¹ |  | 0.000215 ± 4.6e-05 s⁻¹ | 0.000443 ± 0.00011 s⁻¹ | 0.000614 ± 0.00012 s⁻¹
14 | AUAAAAGCGCUAGAACUACAGAAAUGUAGUUGACGAGGAGGAGGUUUAUCGAAUUUUCGGUGGAUGCCUCCAAA [C11U C61U] | < 1e-05 s⁻¹ | 122 ± 8.2 µM | < 1e-05 s⁻¹ |  | < 1e-05 s⁻¹ |  | < 1e-05 s⁻¹
15 | AUAAAAGCGCUAGAACUACAGAAAUGUAGUUGACGAGGACGAGGUUUAUCGAAUUUUCGGCGGAUGCCUCUAAA [C11U G40C C71U] | 0.000141 ± 1.8e-06 s⁻¹ | 1450 ± 65 µM |  |  | 4.4e-05 ± 1.6e-05 s⁻¹ | 8.73e-05 ± 2.5e-05 s⁻¹ | 0.000124 ± 1.7e-05 s⁻¹
16 | AUAAAAGCGCUAGAACUACAGAAAUGUAGUUGACGAGAAGAGGGUUUAUCGAAUUUUCGGCGGAUGCCUCCAAA [C11U G38A G41A A42G] | 1.14e-05 ± 5.7e-06 s⁻¹ |  | < 1e-05 s⁻¹ | < 1e-05 s⁻¹ |  |  | 
17 | AUAAAAGCGCUAGAACUACAGAAAUGUAGUUGACGAGGAGGAGGUUUAUCGAUCUUUAGGCGGAUGCCUCCAAA [C11U A53U U54C C58A] | 1.72e-05 ± 2.3e-06 s⁻¹ |  |  |  | < 1e-05 s⁻¹ |  | 
